Reference: US11833164B2, “Methods of treating Fabry disease in patients having a mutation in the GLA gene” (Amicus Therapeutics, Inc., priority 2019, dated 2023)

Test system: mutant form of α-Gal A expressed in HEK-293 cells
Experiment: HEK assay (GLP HEK / Migalastat Amenability Assay): α-Gal A activity in lysates of transiently transfected HEK-293 cells incubated with or without 10 μM migalastat
Format: cell-based, human
Conditions: for Absolute increase (% WT): 10 μM migalastat versus baseline; for Relative increase: 10 μM migalastat α-Gal A activity relative to baseline; for 10 μM migalastat α-Gal A activity (% WT): 5 days; for 10 μM migalastat α-Gal A activity (% WT) / Baseline α-Gal A activity (% WT): percentage of baseline wild-type α-Gal A activity; for 10 μM migalastat α-Gal A activity (% WT) / Baseline α-Gal A activity (% WT) / Baseline α-Gal A activity / 10 μM migalastat α-Gal A activity: mean ± SEM; for Baseline α-Gal A activity (% WT): absence of migalastat; for Baseline α-Gal A activity / 10 μM migalastat α-Gal A activity: lysates of HEK-293 cells transfected with the mutant form; for Baseline α-Gal A activity: incubated 5 days in the absence of migalastat; for 10 μM migalastat α-Gal A activity: incubated 5 days with 10 μM migalastat
Procedure, shortened: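 Activity reported as 4-MU released (nmol/mg/hr), mean±SEM, from lysates of transiently transfected HEK-293 cells expressing mutant α-Gal A, cultured with or without 10 μM migalastat.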

Molecule	Absolute increase (% WT)	Relative increase	10 μM migalastat α-Gal A activity (% WT)	Baseline α-Gal A activity (% WT)	Baseline α-Gal A activity [nmol/mg/h]	10 μM migalastat α-Gal A activity [nmol/mg/h]
K185N (protein) MQLRNPELHLGCALALRFLALVSWDIPGARALDNGLARTPTMGWLHWERFMCNLDCQEEPDSCISEKLFMEMAELMVSEGWKDAGYEYLCIDDCWMAPQRDSEGRLQADPQRFPHGIRQLANYVHSKGLKLGIYADVGNKTCAGFPGSFGYYDIDAQTFADWGVDLLKFDGCYCDSLENLADGYNHMSLALNRTGRSIVYSCEWPLYMWPFQKPNYTEIRQYCNHWRNFADIDDSWKSIKSILDWTSFNQERIVDVAGPGGWNDPDMLVIGNFGLSWNQQVTQMALWAIMAAPLFMSNDLRHISPQAKALLQDKDVIAINQDPLGKQGYQLRQGDNFEVWERPLSGLAWAVAMINRQEIGGPRSYTIAVASLGKGVACNPACFITQLLPVKRKLGFYEWTSRLRSHINPTGTVLLQLENTMQMSLKDLL	22.5	12.7	24.4 ± 1.9	1.9 ± 0.1	833 ± 38	10540 ± 618
H186D (protein) MQLRNPELHLGCALALRFLALVSWDIPGARALDNGLARTPTMGWLHWERFMCNLDCQEEPDSCISEKLFMEMAELMVSEGWKDAGYEYLCIDDCWMAPQRDSEGRLQADPQRFPHGIRQLANYVHSKGLKLGIYADVGNKTCAGFPGSFGYYDIDAQTFADWGVDLLKFDGCYCDSLENLADGYKDMSLALNRTGRSIVYSCEWPLYMWPFQKPNYTEIRQYCNHWRNFADIDDSWKSIKSILDWTSFNQERIVDVAGPGGWNDPDMLVIGNFGLSWNQQVTQMALWAIMAAPLFMSNDLRHISPQAKALLQDKDVIAINQDPLGKQGYQLRQGDNFEVWERPLSGLAWAVAMINRQEIGGPRSYTIAVASLGKGVACNPACFITQLLPVKRKLGFYEWTSRLRSHINPTGTVLLQLENTMQMSLKDLL	18.2	1.3	78.2 ± 5.2	60 ± 4.1	26924 ± 2047	34055 ± 1657
K185Q (protein) MQLRNPELHLGCALALRFLALVSWDIPGARALDNGLARTPTMGWLHWERFMCNLDCQEEPDSCISEKLFMEMAELMVSEGWKDAGYEYLCIDDCWMAPQRDSEGRLQADPQRFPHGIRQLANYVHSKGLKLGIYADVGNKTCAGFPGSFGYYDIDAQTFADWGVDLLKFDGCYCDSLENLADGYQHMSLALNRTGRSIVYSCEWPLYMWPFQKPNYTEIRQYCNHWRNFADIDDSWKSIKSILDWTSFNQERIVDVAGPGGWNDPDMLVIGNFGLSWNQQVTQMALWAIMAAPLFMSNDLRHISPQAKALLQDKDVIAINQDPLGKQGYQLRQGDNFEVWERPLSGLAWAVAMINRQEIGGPRSYTIAVASLGKGVACNPACFITQLLPVKRKLGFYEWTSRLRSHINPTGTVLLQLENTMQMSLKDLL	30.9	1.7	74.5 ± 2.9	43.6 ± 2.2	14992 ± 947	25543 ± 1463
K185T (protein) MQLRNPELHLGCALALRFLALVSWDIPGARALDNGLARTPTMGWLHWERFMCNLDCQEEPDSCISEKLFMEMAELMVSEGWKDAGYEYLCIDDCWMAPQRDSEGRLQADPQRFPHGIRQLANYVHSKGLKLGIYADVGNKTCAGFPGSFGYYDIDAQTFADWGVDLLKFDGCYCDSLENLADGYTHMSLALNRTGRSIVYSCEWPLYMWPFQKPNYTEIRQYCNHWRNFADIDDSWKSIKSILDWTSFNQERIVDVAGPGGWNDPDMLVIGNFGLSWNQQVTQMALWAIMAAPLFMSNDLRHISPQAKALLQDKDVIAINQDPLGKQGYQLRQGDNFEVWERPLSGLAWAVAMINRQEIGGPRSYTIAVASLGKGVACNPACFITQLLPVKRKLGFYEWTSRLRSHINPTGTVLLQLENTMQMSLKDLL	19.0	1.2	92.6 ± 7.8	73.6 ± 4.4	32028 ± 1167	39805 ± 2259
